Assays:
[1] = biological target: 野生型SARS-CoV-2假病毒的刺突Δ19 (SARS-CoV-2, UniProt P0DTC2 14-1254); experiment: cell-based or functional assay
[2] = biological target: SARS-CoV-2刺突N501Y+D614G假病毒的刺突Δ19 (SARS-CoV-2, UniProt P0DTC2 14-1254); experiment: cell-based or functional assay
[3] = biological target: 真SARS-CoV-2英国变异株(B.1.1.7)病毒的刺突 (SARS-CoV-2); experiment: cell-based or functional assay
[4] = biological target: SARS-CoV-2 K417N+E484K+N501Y+D614G假病毒的刺突Δ19 (SARS-CoV-2, UniProt P0DTC2 14-1254); experiment: cell-based or functional assay
[5] = biological target: SARS-CoV-2 B.1.617.2假病毒的刺突Δ19 (SARS-CoV-2); experiment: cell-based or functional assay
[6] = biological target: T1, SARS-CoV-2 S-RBD (SARS-CoV-2, UniProt P0DTC2 319-541); experiment: BLI, biotinylated S-RBD on SA sensor, 1:1 Langmuir model
T1 construct: also called WT S-RBD; 野生型(WT)S-RBD

[7] = biological target: T2, K417N+E484K+N501Y RBD (SARS-CoV-2, UniProt P0DTC2 319-541); experiment: BLI, biotinylated B.1.351 S-RBD on SA sensor, 1:1 Langmuir model
T2 construct: also called B.1.351S-RBD; B.1.351的刺突RBD

| Binder | NT50, 假病毒中和 (野生型PSV) [1] | NT50, 假病毒中和 (N501Y+D614G PSV) [2] | NT50, 真病毒中和 (B.1.1.7) [3] | NT50(B.1.351) [4] | NT50(B.1.617.2) [5] | Kd [6] | Kd [7] |
| --- | --- | --- | --- | --- | --- | --- | --- |
| S-E6 (antibody, V domains shown, also called S-E6二聚体; 二聚体S-E6) VH: QVTLRESGPGLVKPSETLSLTCAVSGGSLSSVNYYWSWIRQHPGKGLEWIGYIYYSGSTNYNPSLKSRVTMSLDTSKNQFSLKLSSVTAADTAVYYCATPGAIMGALHIWGQGTLVTVSS VL: QAVLTQPSSASSTPGQRVIISCSGSSSNIGSNTVSWYQQVPGAAPKLLIYFDYRRPSGVPDRFSGTRSGTSASLGISGLQSEDEADYYCAAWDDSLSAWVFGRGTKLTVLG | 0.025 nM | 0.021 nM | 1.15 nM | 0.32 nM | 0.065 nM | – | – |
| S-E6三聚体 (other, also called 三聚体S-E6) heavy (part 1 of 2): QVTLRESGPGLVKPSETLSLTCAVSGGSLSSVNYYWSWIRQHPGKGLEWIGYIYYSGSTNYNPSLKSRVTMSLDTSKNQFSLKLSSVTAADTAVYYCATPGAIMGALHIWGQGTLVTVSS heavy (part 2 of 2): GGGGSGGGGSGGGGSPGSGYIPEAPRDGQAYVRKDGEWVLLSTFLGHHHHHH light: QAVLTQPSSASSTPGQRVIISCSGSSSNIGSNTVSWYQQVPGAAPKLLIYFDYRRPSGVPDRFSGTRSGTSASLGISGLQSEDEADYYCAAWDDSLSAWVFGRGTKLTVLG | – | – | – | – | 0.007 nM | 0.0101 nM | 0.58 nM |
| S-B8 (antibody, V domains shown, also called S-B8二聚体) VH: QVQLVQSGGGLIQPGGSLRLSCAASGFTVSLSHMNWVRQAPGKGLEWVSITYGDGNSDYADSVKGRFTISRDNSKNTLYLQMNSLRAEDTAVYYCAREYYYGMDVWGQGTTVTVSS VL: not shown | – | 0.53 nM | – | 1.2 nM | 0.37 nM | – | – |
| S-B8三聚体 (other) heavy (part 1 of 2): QVQLVQSGGGLIQPGGSLRLSCAASGFTVSLSHMNWVRQAPGKGLEWVSITYGDGNSDYADSVKGRFTISRDNSKNTLYLQMNSLRAEDTAVYYCAREYYYGMDVWGQGTTVTVSS heavy (part 2 of 2): GGGGSGGGGSGGGGSPGSGYIPEAPRDGQAYVRKDGEWVLLSTFLGHHHHHH light: not shown | – | – | – | 0.35 nM | 0.15 nM | – | – |
| S-D4 (antibody, V domains shown, also called S-D4二聚体; S-D4 IgG4) VH: QVQLQESGGGVVQPGRSLRLSCEVSGFTFSDYGMHWVRQAPGKGLEWVAVIWSEGSTEYYADSVKGRFTISRDNSKDTLYLQMNSLRAEDTAVYYCARPGYPTSTDRSPAAAGARQYYYYGMDVWGQGTTVTVSS VL: NFMLTQPHSVSESPGKTVTISCTRSGGSGAANYVQWYQQRPGSSPTTLIYEDSRRPPGVPDRFSGSVDTSSNSASLTISGLQTEDEADYYCQSYDSSNHVVFGGGTKLTVLG | 0.48 nM | 0.042 nM | 1.88 nM | 0.66 nM | 0.24 nM | – | – |

Source: patent CN116406375A (UNIV SHANGHAI TECHNOLOGY, dated 2023)
